This passage reports EC50 and percent lower CaM signal intensity than WT results from publication PMC6161613.

Test [1] concerns the target Dansyl-calmodulin (rat) (UniProt P0DP29). The test is described as follows: other fluorescence titration; D-CaM (12.5 nM) fluorescence enhancement on adding increasing concentrations of GST-fusion protein; absence of Ca2+ (10 mM EGTA added); Hill fit; apparent binding affinity (EC50).
For test [2] the target is unchanged. The test is described as follows: other fluorescence titration; D-CaM (12.5 nM) fluorescence enhancement on adding increasing concentrations of GST-fusion protein; 3.9 μM free Ca2+; Hill fit; apparent binding affinity (EC50).
Test [3] deals with GST-Kv7.2 helices A-B fusion protein (G310-L548) K526N (human). The test is described as follows: pull-down; purified GST fusion proteins immobilised on GSH-Sepharose 4B beads; CaM (10 μg) added, 45 min, room temperature; 25 mM Hepes, 120 mM KCl, 5 mM NaCl, pH 7.5 with 100 μM CaCl2; anti-CaM Western blot, band intensities quantified (n = 3).

For “GST-Kv7.2 helices A-B fusion protein (G310-L548) K526N (domain or fragment)”, the EC50 (usually the concentration that produces a half-maximal response) in the test with Dansyl-calmodulin (rat) [1] worked out at 0.0373 µM; with Dansyl-calmodulin (rat) [2], 0.0559 µM.
In the same order, the values of “GST-Kv7.2 helices A-B fusion protein (G310-L548) R333Q (domain or fragment)” are 0.0126 µM and 0.0301 µM.
Take “Recombinant rat brain calmodulin (from UniProt P0DP29 1-149) (natural protein)”: in test [3], the percent lower CaM signal intensity than WT was found to be 42%.
